Molecular target: T1, Purified His-tagged MYC (UniProt P01106 1-454)
T1 construct: MYC, purified recombinant protein bought from Origene; also called MYC (TP760019); source: bought: Origene (TP760019), purified
Test: co-IP; in vitro: 5 ug of each purified protein mixed in 100 ul of 1% NP-40, 120 mM NaCl, 40 mM tris-HCl pH 7.4, 1.5 mM sodium orthovanadate, 50 mM sodium fluoride, 10 mM sodium pyrophosphate, protease inhibitors, 6 h at 4 °C, then immunoprecipitation
Conditions: both partners purified

T1 sequence (P01106 whole entry): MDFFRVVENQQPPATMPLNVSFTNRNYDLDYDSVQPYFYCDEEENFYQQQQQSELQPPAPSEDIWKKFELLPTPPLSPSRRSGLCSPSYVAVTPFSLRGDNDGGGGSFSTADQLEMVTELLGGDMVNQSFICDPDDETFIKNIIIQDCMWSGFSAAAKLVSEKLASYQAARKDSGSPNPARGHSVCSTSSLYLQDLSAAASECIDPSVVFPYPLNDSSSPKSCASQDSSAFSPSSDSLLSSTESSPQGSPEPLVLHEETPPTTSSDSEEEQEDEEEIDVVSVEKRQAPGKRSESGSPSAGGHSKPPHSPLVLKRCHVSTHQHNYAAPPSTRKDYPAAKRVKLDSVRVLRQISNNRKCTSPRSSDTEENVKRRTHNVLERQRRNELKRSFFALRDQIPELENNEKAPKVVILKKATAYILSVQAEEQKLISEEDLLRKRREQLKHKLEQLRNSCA

B1: Purified GST-tagged HDAC3 (enzyme, UniProt O15379 1-428, looked up)
chain: MAKTVAYFYDPDVGNFHYGAGHPMKPHRLALTHSLVLHYGLYKKMIVFKPYQASQHDMCRFHSEDYIDFLQRVSPTNMQGFTKSLNAFNVGDDCPVFPGLFEFCSRYTGASLQGATQLNNKICDIAINWAGGLHHAKKFEASGFCYVNDIVIGILELLKYHPRVLYIDIDIHHGDGVQEAFYLTDRVMTVSFHKYGNYFFPGTGDMYEVGAESGRYYCLNVPLRDGIDDQSYKHLFQPVINQVVDFYQPTCIVLQCGADSLGCDRLGCFNLSIRGHGECVEYVKSFNIPLLVLGGGGYTVRNVARCWTYETSLLVEEAISEELPYSEYFEYFAPDFTLHPDVSTRIENQNSRQYLDQIRQTIFENLKMLNHAPSVQIHDVPADLLTYDRTDEADAEERGPEENYSRPEAPNEFYDGDHDNDKESDVEI
notes: Histone deacetylase 3, purified recombinant protein bought from Sino Biological; also called HDAC3 (11511-H20B); source: bought: Sino Biological (11511-H20B), purified
  binding result: binds

— PMC10517016, “SCARB2 drives hepatocellular carcinoma tumor initiating cells via enhanced MYC transcriptional activity” (Nature Communications, 2023)
